Measured values: patent US20210277061A1 (UNIVERSITY OF HONG KONG, published 2021)
Like-named read-outs stand apart in the source and are kept apart here. Values belong to the binder of their own block, whether it stands above or below them. No end group written: not given here. *: point of attachment. Oxazole(5-CO) = O=C(c1cnco1)*; 2Furoyl = O=C(c1ccco1)*; Cbz = O=C(OCc1ccccc1)*

Columns and labels:
[1] = target: T1, AF9 YEATS domain, His-AF9 (1-138) (human, UniProt P42568 1-138); assay: photo-cross-linking-based competition against the photoaffinity probe (probe 1) on AF9 YEATS domain, in-gel fluorescence
T1 construct: Expressed in E. coli; not shown: His tag
T1 sequence (looked up): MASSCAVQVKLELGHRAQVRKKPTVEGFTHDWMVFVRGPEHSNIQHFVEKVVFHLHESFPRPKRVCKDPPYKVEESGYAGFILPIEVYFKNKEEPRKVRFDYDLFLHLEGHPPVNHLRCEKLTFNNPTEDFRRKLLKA

[2] = target: T1, AF9 YEATS domain, His-AF9 (1-138); assay: photo-cross-linking competition vs photoaffinity probe, in-gel fluorescence
[3] = target: T2, Gas41 YEATS domain, His-Gas41 (15-159) (human, UniProt O95619 15-159); assay: as above
T2 construct: Expressed in E. coli; not shown: His tag

[4] = target: T3, YEATS2 YEATS domain, His-SUMO-YEATS2 (201-332) (human, UniProt Q9ULM3 201-332); assay: as above
T3 construct: range 201-332; Expressed in E. coli; also called YEATS2 domain; not shown: His-SUMO tag
T3 sequence (looked up): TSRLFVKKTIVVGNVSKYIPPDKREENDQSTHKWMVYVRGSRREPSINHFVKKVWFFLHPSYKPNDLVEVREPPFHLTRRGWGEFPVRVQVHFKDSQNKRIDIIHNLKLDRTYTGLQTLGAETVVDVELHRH

[5] = target: T1, AF9 YEATS domain, His-AF9 (1-138); assay: as above; remark: listed apart in the source
[6] = target: T4, ENL YEATS domain, His-SUMO-ENL (1-138) (human, UniProt Q03111 1-138); assay: as above
T4 construct: Expressed in E. coli; not shown: His-SUMO tag
T4 sequence (looked up): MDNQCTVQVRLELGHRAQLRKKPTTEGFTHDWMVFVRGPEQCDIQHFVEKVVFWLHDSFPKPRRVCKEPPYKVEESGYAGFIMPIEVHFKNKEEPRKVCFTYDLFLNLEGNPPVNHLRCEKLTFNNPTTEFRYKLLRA

[7] = target: T1, AF9 YEATS domain, His-AF9 (1-138); assay: method and target not named in the sentence (AF9 YEATS by context)
[8] = target: T3, YEATS2 YEATS domain, His-SUMO-YEATS2 …; assay: photo-cross-linking-based competition against the photoaffinity probe on the YEATS2 YEATS domain, in-gel fluorescence
[9] = target: T2, Gas41 YEATS domain, His-Gas41 (15-159); assay: photo-cross-linking competition vs photoaffinity probe, in-gel fluorescence; remark: listed apart in the source
[10] = target: T3, YEATS2 YEATS domain, His-SUMO-YEATS2 …; assay: as above; remark: listed apart in the source
[11] = target: T4, ENL YEATS domain, His-SUMO-ENL (1-138); assay: as above; remark: listed apart in the source

T2 sequence (O95619 15-159 limits assumed): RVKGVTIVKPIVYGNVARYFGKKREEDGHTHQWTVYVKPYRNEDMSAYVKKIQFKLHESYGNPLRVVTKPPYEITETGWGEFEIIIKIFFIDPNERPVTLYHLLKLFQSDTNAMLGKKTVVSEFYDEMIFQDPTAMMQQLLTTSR

IC50 [1]: 31.8 µM | IC50 [2]: 27.9 µM
B1: compound 1 (XL-01) (peptide)
peptide: KQTARKSTGG-NH2
modifications: not fully specified (residue 6); also: Lys6 acylated with group R, structure drawing only
notes: also called 4.1

IC50 [3]: 123 µM | IC50 [4]: 42.4 µM | IC50 [5]: 0.26 µM | IC50 [6]: 1.3 µM | Kd [7]: 0.33 µM | IC50 [8]: 42.2 µM | IC50 [9]: 123 µM | IC50 [10]: 42.4 µM | IC50 [2]: 0.26 µM | IC50 [11]: 1.3 µM
B2: compound 26 (XL-07j) (peptide)
peptide: Cbz-QTARK(2Furoyl)-NH2
SMILES: C[C@H](NC(=O)[C@@H](NC(=O)[C@H](CCC(N)=O)NC(=O)OCc1ccccc1)[C@@H](C)O)C(=O)N[C@@H](CCCNC(=N)N)C(=O)N[C@@H](CCCCNC(=O)c1ccco1)C(N)=O
notes: also called 4.7j

IC50 [3]: 14.5 µM | IC50 [4]: 98.7 µM | IC50 [5]: 0.24 µM | Kd [7]: 0.131 µM | IC50 [9]: 14.5 µM | IC50 [10]: 98.7 µM | IC50 [2]: 0.24 µM
B3: compound 27 (XL-13a) (peptide)
peptide: Cbz-QTARK(Oxazole(5-CO))-NH2
notes: also called 4.13a
